Values joined by “and” are separate entries in the source; they are usually repeats but may differ in a detail not shown here. Equal values may be shown once.
Target: the molecule itself
Test: PFO-PAGE

B1: SARS-CoV M protein endodomain, residues 107-221 (M_(107-221)) (domain or fragment)
chain: SMWSFNPETNILLNVPLRGTIVTRPLMESELVIGAVIIRGHLRMAGHSLGRCDIKDLPKEITVATSRTLSYYKLGASQRVGTDSGFAAYNRYRIGNYKLNTDHAGSNDNIALLVQ
For B1, the “stoichiometry N” value was 2 and 4 and 6.

— article PMC4486061 (Journal of Structural Biology, 2010)
